In patent publication US20090054250, “Methods to create fluorescent biosensors using aptamers with fluorescent base analogs” (published 2009):

Experiments:
alpha-thrombin [1] = biological target: T1, alpha-thrombin (Homo sapiens, UniProt P00734;P00734 P00734:328-363,P00734:364-622); experiment: 6MAP fluorescence at saturating protein
[2] = biological target: PDGF-BB (platelet-derived growth factor B homodimer) (UniProt P01127 P01127:82-190); experiment: saturating protein; details: chain copies: 2 stated, three-helix junction
PDGF-BB (platelet-derived growth factor B homodimer), sequence (P01127 82-190, one chain of several): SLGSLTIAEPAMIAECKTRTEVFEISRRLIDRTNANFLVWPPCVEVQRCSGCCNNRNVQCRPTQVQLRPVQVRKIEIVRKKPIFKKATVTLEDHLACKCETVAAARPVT

alpha-thrombin [3] = biological target: T1, alpha-thrombin; experiment: 3MI fluorescence at saturating protein
alpha-thrombin [4] = biological target: T1, alpha-thrombin; experiment: 3MI signal, 350 nm excitation; AlexaFluor 430 FRET signal up 2.9-fold
alpha-thrombin [5] = biological target: T1, alpha-thrombin; experiment: 3MI signal of streptavidin-aptamer complex; AlexaFluor 430 up 1.9-fold

B1: thrombin aptamer 6MAP-7 (ssDNA)
DNA: GGTTGGTGTGGTTGG
modifications: n at position 7 is 4-amino-6-methyl-pteridone (6MAP) replacing T [7 (6MAP replacing T)]
binding signal (alpha-thrombin [1]): 32.9 fold fluorescence increase

CACAGGCTACGGCACGTAGAGCATCACCATGATCCTGTG (ssDNA, n at position 22 is 6MAP replacing C [22 (6MAP replacing C)]) [PDGF-B aptamer 6MAP-22]
binding signal ([2]; label: 6MAP): 6.7 fold fluorescence increase

B2: thrombin aptamer 3MI-7 (ssDNA)
DNA: GGTTGGTGTGGTTGG
modifications: n at position 7 is 3-methylisoxanthopterin replacing T [7 (3-methylisoxanthopterin replacing T)]
binding signal (alpha-thrombin [3]): 9.7 fold fluorescence increase

B3: thrombin aptamer 3MI-7 AlexaFluor 430 (ssDNA)
DNA: GGTTGGTGTGGTTGG
modifications: n at position 7 is 3-methylisoxanthopterin; 5' 21-atom amino linker [7 (3-methylisoxanthopterin replacing T); 5' 21-atom amino linker with AlexaFluor 430 left out]
binding signal (alpha-thrombin [4]): ~7.5 fold fluorescence increase

B4: thrombin aptamer 3MI-7 biotin (ssDNA)
DNA: GGTTGGTGTGGTTGG
modifications: n at position 7 is 3-methylisoxanthopterin; 5' 40-atom linker [7 (3-methylisoxanthopterin replacing T); 5' 40-atom linker with biotin left out]
binding signal (alpha-thrombin [5]): ~7.1 fold fluorescence increase

B5: PDGF-B aptamer 3MI-22 (ssDNA)
DNA: CACAGGCTACGGCACGTAGAGCATCACCATGATCCTGTG
modifications: n at position 22 is 3-methylisoxanthopterin replacing C [22 (3-methylisoxanthopterin replacing C)]
binding signal ([2]; label: 3MI): 2.5 fold fluorescence increase
